Measured values from US8399204B2, “Method for screening of substance which alter GPR120-mediated cell-stimulating activities” (Eisai R&D Management Co., Ltd., priority 2005, dated 2013).
Positions count from the first letter of the chain named.

T1: mouse GPR120 (Mus musculus, UniProt Q7TMA4)
T1 construct: expressed in transfected cells; host or cells: SE302 cells (HEK293 clone carrying a CRE-PLAP reporter), transduced with retrovirus from pBabeCL(mGPR120)IH and selected with hygromycin
T1 sequence (Q7TMA4 1-361): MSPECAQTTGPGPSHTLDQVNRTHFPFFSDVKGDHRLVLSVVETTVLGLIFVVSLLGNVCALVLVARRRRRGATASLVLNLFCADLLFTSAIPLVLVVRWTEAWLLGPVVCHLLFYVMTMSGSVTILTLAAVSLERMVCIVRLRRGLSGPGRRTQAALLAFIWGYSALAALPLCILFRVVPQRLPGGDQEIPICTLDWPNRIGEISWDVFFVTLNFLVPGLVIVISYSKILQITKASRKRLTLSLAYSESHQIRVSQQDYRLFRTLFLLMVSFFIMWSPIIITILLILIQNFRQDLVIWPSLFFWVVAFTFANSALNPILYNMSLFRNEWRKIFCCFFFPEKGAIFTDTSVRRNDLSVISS

T2: human GPR120 (Homo sapiens, UniProt Q5NUL3)
T2 construct: open reading frame which starts with ATG of the nucleotide number 1-3 and ends with TAA of the nucleotide number 1084-1086; expressed in transfected cells; host or cells: SE302 cells (HEK293 clone carrying a CRE-PLAP reporter), transduced with retrovirus from pBabeCL(GPR120)IH and selected with hygromycin
T2 sequence (Q5NUL3 1-361): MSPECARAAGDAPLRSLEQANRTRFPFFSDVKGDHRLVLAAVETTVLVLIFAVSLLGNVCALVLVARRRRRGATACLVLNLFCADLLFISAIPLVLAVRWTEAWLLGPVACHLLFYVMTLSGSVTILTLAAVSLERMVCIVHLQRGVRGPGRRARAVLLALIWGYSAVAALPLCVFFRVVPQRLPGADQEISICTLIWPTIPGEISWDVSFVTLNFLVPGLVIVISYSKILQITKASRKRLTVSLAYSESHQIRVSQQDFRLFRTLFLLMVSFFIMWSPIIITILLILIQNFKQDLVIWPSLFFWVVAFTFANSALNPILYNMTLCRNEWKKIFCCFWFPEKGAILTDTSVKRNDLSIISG

B1: GX-sPLA2: rat Group X secretory phospholipase A2 (SEQ ID NO 23) purified from rat intestinal tract and testis extracts (protein, listed as Rattus norvegicus)
chain: GLLELAGTLDCVGPRSPMAYMNYGCYCGLGGHGEPRDAIDWCCYYHDCCYSQAQDAGCSPKLYRYPWKCMDHRILCGPAENKCQELLCRCDETLAYCLADTEYHLKYLFFPSVLCEKDSPKCN
B2: hGX-sPLA2-His: purified human C-terminal His-tagged GX-sPLA2 from baculovirus-infected Sf9 cells (protein, UniProt O15496 43-165, looked up)
Group 10 secretory …: GILELAGTVGCVGPRTPIAYMKYGCFCGLGGHGQPRDAIDWCCHGHDCCYTRAEEAGCSPKTERYSWQCVNQSVLCGPAENKCQELLCKCDQEIANCLAQTEYNLKYLFYPQFLCEPDSPKCD
modifications: C-terminal His6 tag
notes: purified human C-terminal His-tagged GX-sPLA2 from baculovirus-infected Sf9 cells
B3: mGX-sPLA2-His: purified mouse C-terminal His-tagged GX-sPLA2 from baculovirus-infected Sf9 cells (protein, UniProt Q9QXX3 29-151, looked up)
Group 10 secretory …: B1 chain with Y45H, Q52R, Y63D, R73H, T93E, D100G, V113I
modifications: C-terminal His6 tag
notes: purified mouse C-terminal His-tagged GX-sPLA2 from baculovirus-infected Sf9 cells
B4: recombinant hGX-sPLA2: C-terminal FLAG-tagged human GX-sPLA2 (SEQ ID NO 43) produced in silkworm pupae, purified (protein, listed as Homo sapiens)
chain: MGPLPVCLPIMLLLLLPSLLLLLLLPGPGSGEASRILRVHRRGILELAGTVGCVGPRTPIAYMKYGCFCGLGGHGQPRDAIDWCCHGHDCCYTRAEEAGCSPKTERYSWQCVNQSVLCGPAENKCQELLCKCDQEIANCLAQTEYNLKYLFYPQFLCEPDSPKCDDYKDDDDK
modifications: C-terminal FLAG tag
B5: recombinant mGX-sPLA2: C-terminal FLAG-tagged mouse GX-sPLA2 (SEQ ID NO 45) from baculovirus-infected Sf-9 cells, purified (protein, listed as Mus musculus)
chain: MLLLLLLLLLGPGPGFSEATRRSHVYKRGLLELAGTLDCVGPRSPMAYMNYGCYCGLGGHGEPRDAIDWCCYHHDCCYSRAQDAGCSPKLDRYPWKCMDHHILCGPAENKCQELLCRCDEELAYCLAGTEYHLKYLFFPSILCEKDSPKCNDYKDDDDK
modifications: C-terminal FLAG tag

Key:
[1] = target: T1, mouse GPR120; assay: PLAP reporter transcription activity in mGPR120-SE302 cells (CRE-PLAP reporter); assay type: cell-based; settings: HEK293-derived SE302 cells expressing mouse GPR120; forskolin 1.0 μM plus sample, 24 hours; chemiluminescence of supernatant; compared to control cells (GFP-SE302)
Description: (§1) Using a retrovirus vector plasmid pBabeCLcre4vPdNN capable of inducing a reporter PLAP gene by a cyclic AMP responsive element sequence, a retrovirus vector was prepared according to the method described in Example 4. The retrovirus vector prepared was introduced into HEK293 cells and cells were cloned by a limiting dilution method.
(§2) The SE302 cells constructed in Example 5 were seeded onto a collagen coated 6 well plate (Asahi Technoglass, Co.) at 1.2×10^5 cells per well. Cells were cultured with 2 mL/well of DMEM medium (Sigma, Co.) (containing 10% FBS, penicillin 100 units/mL and streptomycin 100 μg/mL). On the following day, solutions of the virus vector containing GPR120 or mGPR120 obtained in Example 4, and polybrene (also called hexadimethrine bromide, Sigma, Co.) at a final concentration of 8 μg/mL were added to SE302 cells. Cells were cultured with the medium containing 500 μg/mL of hygromycin (Invitrogen, Co.) and cells grown under this condition were used for experiments as SE302 cells introduced with GPR120 gene, and SE302 cells introduced with mGPR120 gene (referred to as “GPR120-SE302 cells” and “mGPR120-SE302 cells”, respectively hereinafter).
The aforementioned GPR120-SE302 cells or mGPR120-SE302 cells constructed in Example 6 were suspended in the culture medium for measurement of transcription activity (DMEM containing FBS which was heat-treated at 65° C. for 30 min at a final concentration of 10%) and seeded onto a 96 well plate (Becton Dickinson, Co.) at 1×10^4 cells/well. In addition, as control cells, SE302 cells expressing green fluorescent protein (GFP, Invitrogen, Co.) (referred to as “GFP-SE302 cells” hereinafter) were used. Specifically, GFP-302 cells were prepared by obtaining a virus for expressing GFP using the method shown in Example 3 and 4, and transfecting SE302 cells with the virus using the method shown in Example 6. Cells were cultured for 24 hours after seeding, and forskolin prepared at a final concentration of 1.0 μM and a sample were added. Cells were cultured for another 24 hours and 5 μL of the cell supernatant was recovered and transferred to a polypropylene 384-well white plate (Nalge Nunc International, Co.). Then, 20 μL of the assay buffer (280 mmol/L Na2CO3—NaHCO3, 8 mmol/L MgSO4, pH 10) and 25 μL of Lumiphos530 (Lumigen, Co.) were added. Following a 2-hour reaction at room temperature, chemiluminescence in each well was measured using a Fusion plate reader (Perkin Elmer, Co.) and was defined as the transcription activity. Based on these measured values, stimulation/inhibition of transcription activity was calculated using the equation (I) shown below and described as [% of control]. Activities of the group with a sample added were calculated using the value of control placed on each plate. [% of control]=(X−C)/(F−C)×100 (I) Herein, in the above equation: • X: PLAP transcription activity in the group added with a sample, • F: Mean value of transcription activities in 2 wells of a positive control (no sample added, stimulated with forskolin), • C: Mean value of transcription activities in 2 wells of a negative control (no sample added, not stimulated with forskolin).

[2] = target: T2, human GPR120; assay: PLAP reporter transcription activity in GPR120-SE302 cells (CRE-PLAP reporter); assay type: cell-based; settings: HEK293-derived SE302 cells expressing human GPR120; forskolin 1.0 μM plus sample, 24 hours; chemiluminescence of supernatant; compared to control cells (GFP-SE302)
Description: as §1, §2
The aforementioned GPR120-SE302 cells or mGPR120-SE302 cells constructed in Example 6 were suspended in the culture medium for measurement of transcription activity (DMEM containing FBS which was heat-treated at 65° C. for 30 min at a final concentration of 10%) and seeded onto a 96 well plate (Becton Dickinson, Co.) at 1×10^4 cells/well. In addition, as control cells, SE302 cells expressing green fluorescent protein (GFP, Invitrogen, Co.) (referred to as “GFP-SE302 cells” hereinafter) were used. Specifically, GFP-302 cells were prepared by obtaining a virus for expressing GFP using the method shown in Example 3 and 4, and transfecting SE302 cells with the virus using the method shown in Example 6. Cells were cultured for 24 hours after seeding, and forskolin prepared at a final concentration of 1.0 μM and a sample were added. Cells were cultured for another 24 hours and 5 μL of the cell supernatant was recovered and transferred to a polypropylene 384-well white plate (Nalge Nunc International, Co.). Then, 20 μL of the assay buffer (280 mmol/L Na2CO3—NaHCO3, 8 mmol/L MgSO4, pH 10) and 25 μL of Lumiphos530 (Lumigen, Co.) were added. Following a 2-hour reaction at room temperature, chemiluminescence in each well was measured using a Fusion plate reader (Perkin Elmer, Co.) and was defined as the transcription activity. Based on these measured values, stimulation/inhibition of transcription activity was calculated using the equation (I) shown below and described as [% of control]. Activities of the group with a sample added were calculated using the value of control placed on each plate. […]

Molecule	PLAP activity in mGPR120-SE302 cells [1]	PLAP activity in GPR120-SE302 cells [2]
porcine pancreatic sPLA2: commercially-available (Sigma) porcine pancreatic sPLA2, reported to be mainly Group IB sPLA2 (Swiss Prot P00592)	concentration dependent elevation of PLAP activity	concentration dependent elevation of PLAP activity
B1	–	elevate PLAP activity specifically in GPR120-SE302 cells
B2	concentration dependent elevation of PLAP activity	–
B3	concentration dependent elevation of PLAP activity	–
B4	concentration dependent elevation of PLAP activity	concentration dependent elevation of PLAP activity
B5	concentration dependent elevation of PLAP activity	concentration dependent elevation of PLAP activity
